In patent EP4620474A1:

Biological target: human receptor for C5a (human) (UniProt P21730)
Experiment: cell-based or functional assay

Sequence of UniProt P21730 (P21730 whole entry): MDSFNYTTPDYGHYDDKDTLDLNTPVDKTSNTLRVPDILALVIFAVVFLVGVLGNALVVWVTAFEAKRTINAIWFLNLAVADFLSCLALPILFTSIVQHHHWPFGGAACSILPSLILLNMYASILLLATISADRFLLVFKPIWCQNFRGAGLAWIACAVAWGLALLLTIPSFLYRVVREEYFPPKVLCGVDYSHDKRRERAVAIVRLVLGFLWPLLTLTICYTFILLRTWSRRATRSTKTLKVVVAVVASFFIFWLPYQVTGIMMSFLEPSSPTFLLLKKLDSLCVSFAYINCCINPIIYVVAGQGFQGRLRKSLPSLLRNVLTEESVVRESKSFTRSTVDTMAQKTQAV

half effective concentrations (EC50), chemotaxis (migration) of BA/F3/huC5aR cells [nM] | Substance
0.3 | mouse C5a (from UniProt P06684 679-755) (ligand)
0.1 | recombinant human C5a (from UniProt P01031 678-751) (ligand)
